Numbering of substitutions follows the chain as printed. Names and notes keep the numbering of the source.

Test [1] has as its target T1, IL-4R (recombinant protein) (human, UniProt P24394 26-232, biotinylated (Acro Biosystems ILR-H82E9) in the ELISA).
T1 construct: Bought recombinant IL-4R; also called IL-4 receptor; IL-4R molecule
T1 sequence (looked up): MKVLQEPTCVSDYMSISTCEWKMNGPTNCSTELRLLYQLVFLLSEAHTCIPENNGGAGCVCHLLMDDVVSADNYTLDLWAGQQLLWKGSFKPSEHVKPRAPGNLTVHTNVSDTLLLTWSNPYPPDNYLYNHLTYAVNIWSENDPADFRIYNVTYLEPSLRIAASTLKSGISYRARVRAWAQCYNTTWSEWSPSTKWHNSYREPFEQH
The test can be described thus: ELISA, periplasmic extract captured by anti-c-Myc, 50 nM biotinylated IL-4R against MBP. A general note: ELISA stands for enzyme-linked immunosorbent assay.

In test [2] the target is T1, IL-4R (recombinant protein). As to the kind of experiment: SPR. (SPR reads the build-up and loss of mass on a sensor chip optically.)
Another test deals with T2, IL-4R on cells (human, UniProt P24394 26-825).
T2 sequence (looked up): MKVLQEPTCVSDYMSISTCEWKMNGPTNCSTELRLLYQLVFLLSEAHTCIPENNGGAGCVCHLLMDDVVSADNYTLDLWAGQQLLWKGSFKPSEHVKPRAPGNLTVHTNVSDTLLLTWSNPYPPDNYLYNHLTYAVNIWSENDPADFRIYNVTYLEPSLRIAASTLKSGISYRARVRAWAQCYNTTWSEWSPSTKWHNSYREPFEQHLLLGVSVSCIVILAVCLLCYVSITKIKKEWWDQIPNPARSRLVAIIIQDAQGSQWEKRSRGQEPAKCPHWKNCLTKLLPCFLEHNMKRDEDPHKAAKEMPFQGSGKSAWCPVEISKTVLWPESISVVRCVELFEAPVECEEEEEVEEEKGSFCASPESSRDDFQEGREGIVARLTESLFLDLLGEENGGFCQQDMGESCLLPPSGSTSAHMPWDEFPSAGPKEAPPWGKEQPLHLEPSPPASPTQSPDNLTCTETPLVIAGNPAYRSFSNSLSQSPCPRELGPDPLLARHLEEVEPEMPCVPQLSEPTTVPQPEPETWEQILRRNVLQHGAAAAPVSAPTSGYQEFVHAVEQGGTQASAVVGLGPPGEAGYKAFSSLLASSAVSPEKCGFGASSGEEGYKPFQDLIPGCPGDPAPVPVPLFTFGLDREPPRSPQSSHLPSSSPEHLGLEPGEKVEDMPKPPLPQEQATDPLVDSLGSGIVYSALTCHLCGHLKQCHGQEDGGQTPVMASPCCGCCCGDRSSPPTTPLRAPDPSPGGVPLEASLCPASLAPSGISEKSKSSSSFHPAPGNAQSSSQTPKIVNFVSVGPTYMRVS
As to the kind of experiment: cell-based or functional assay.

B1: H5 nanobody (VHH)
VHH: QVQLVESGGGSVQAGGSLRLSCAASGSISSITYLGWFRQAPGKEREGVAALSTSSGTTYYADSVKGRFTVSLDNAKNTVYLQMNSLKPEDTALYYCAAADKGREYTLARAKYWYWGQGTQVTVSA
notes: Synthetic nanobody (sybody, convex scaffold) expressed from pSBinit in E. coli and purified on TALON resin; It was detected with anti-Myc, so the tested protein probably carries Myc/His tags; also called WT H5; H5 wild-type nanobody
As to B1, the “fold-change of OD values for IL-4R and MBP” value in test [1] was > 1.7 fold. Also, the equilibrium dissociation constant (Kd) in test [2] was 1420 nM. The “IL-4 signal blocking in STAT6-luciferase reporter cells (667 pM IL-4, 24 hours)” value with IL-4R on cells is ~2 fold concentration relative to dupilumab.

B2: H5 E104R (VHH)
VHH: B1 VHH with E104R
notes: also called H5 E104R mutant
On to B2, for which the Kd in test [2] is 1.06 nM.

B3: H5 A110Y (VHH)
VHH: B1 VHH with A110Y
notes: also called H5 A110Y mutant
Consider B3, for which the Kd in test [2] was determined as 708 nM.

What is called Kd is the free concentration of one partner at which half of the binding sites on the other are occupied at equilibrium, for simple one-to-one binding.

The values above are taken from patent publication EP4717710A1 (UIF (University Industry Foundation), Yonsei University, dated 2026).
